Measured values: US20250320281A1

What was measured:
Experiment in all cases: cell-based or functional assay
[1] = molecular target: HIV-1 Env of pseudovirus MGRM-Chronic-B-018 (HIV-1)
[2] = molecular target: HIV-1 Env of pseudovirus CMU02 (clade CRF01_AE) (HIV-1)
[3] = molecular target: HIV-1 Env of pseudovirus MGRM-AG-006 (clade CRF_AG) (HIV-1)
[4] = molecular target: HIV-1 Env of isolate 98CN009 (CRF07 BC) (HIV-1 isolate 98CN009)
[5] = molecular target: HIV-1 Env of pseudovirus MGRM-F1-023 (HIV-1)
[6] = molecular target: HIV-1 Env of isolate QH0692.42 (Acute), clade B, on pseudovirus (HIV-1)
[7] = molecular target: HIV-1 Env of isolate THR0.18 (Acute), clade B, on pseudovirus (HIV-1)
[8] = molecular target: HIV-1 Env of pseudovirus MGRM-AG-008 (clade CRF_AG) (HIV-1)
[9] = molecular target: HIV-1 Env of pseudovirus MGRM-F1-015 (HIV-1)
[10] = molecular target: HIV-1 envelope glycoprotein (Env) of isolate MGRM-A-012, clade A (HIV-1)
[11] = molecular target: HIV-1 Env of isolate MGRM-Chronic-B-008, clade B, on pseudovirus (HIV-1)
[12] = molecular target: HIV-1 envelope glycoprotein (Env) of isolate 93RW029, clade A (HIV-1)
[13] = molecular target: HIV-1 envelope glycoprotein (Env) of isolate 92RW020, clade A (HIV-1)
[14] = molecular target: HIV-1 Env of isolate MGRM-F1-010 (pseudovirus) (HIV-1)
[15] = molecular target: HIV-1 Env of isolate 98CN009 (pseudovirus) (HIV-1)
[16] = molecular target: HIV-1 Env of isolate QH0692.42 (subtype B pseudovirus) (HIV-1)
[17] = molecular target: HIV-1 Env of isolate MGRM-D-008 (pseudovirus) (HIV-1)
[18] = molecular target: HIV-1 MGRM-A-010 Env (pseudovirus, clade A) (HIV-1)
[19] = molecular target: HIV-1 Env of isolate MGRM-F1-017 (HIV-1)
[20] = molecular target: HIV-1 Env of isolate MGRM-AE-006 (HIV-1)
[21] = molecular target: HIV-1 Env of isolate MGRM-Chronic-B-011 (subtype B pseudovirus) (HIV-1)
[22] = molecular target: HIV-1 Env of isolate MGRM-Chronic-B-003 (subtype B pseudovirus) (HIV-1)
[23] = molecular target: HIV-1 Env of isolate 92TH021 (clade AE), on pseudovirus (HIV-1)
[24] = molecular target: HIV-1 Env of isolate MGRM-C-026 (HIV-1)
[25] = molecular target: HIV-1 Env of pseudovirus isolate MGRM-G-025 (HIV-1)

Sequence of 1443_C16 (PG16) (TCN-116) (antibody) (VH): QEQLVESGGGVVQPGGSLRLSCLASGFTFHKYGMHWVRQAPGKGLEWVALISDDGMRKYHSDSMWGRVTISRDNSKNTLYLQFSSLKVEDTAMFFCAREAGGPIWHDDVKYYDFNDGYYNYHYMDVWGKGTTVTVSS
Sequence of 1443_C16 (PG16) (TCN-116) (antibody) (VL): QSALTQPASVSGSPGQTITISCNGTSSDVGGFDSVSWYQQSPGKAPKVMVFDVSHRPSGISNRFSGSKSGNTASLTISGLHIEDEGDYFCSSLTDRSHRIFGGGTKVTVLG

Row | Substance | IC50 (µg/ml), pseudovirus neutralization [1] | IC50 [2] | IC50 [3] | IC50 (µg/ml), pseudovirus neutralization [4] | IC50 (µg/ml), pseudovirus neutralization [5] | IC50 (µg/ml), pseudovirus neutralization [6] | IC50 (µg/ml), pseudovirus neutralization [7] | IC50 [8] | IC50 (µg/ml), pseudovirus neutralization [9] | IC50 (µg/ml), pseudovirus neutralization [10] | IC50 (µg/ml), pseudovirus neutralization [11] | IC50 (µg/ml), pseudovirus neutralization [12] | IC50 (µg/ml), pseudovirus neutralization [13] | IC50, pseudovirus neutralization [14] | IC50, pseudovirus neutralization [15] | IC50 (µg/mL), pseudovirus neutralization [16] | IC50, pseudovirus neutralization [17] | IC50 (µg/mL), pseudovirus neutralization [19] | IC50 [20] | IC50 (µg/mL), pseudovirus neutralization [21] | also measured
1 | 2G12 (antibody) | > 50 µg/mL | > 50 µg/mL | 3.92 µg/mL | > 50 µg/mL | 9.23 µg/mL | 4.39 µg/mL | > 50 µg/mL | > 50 µg/mL | > 50 µg/mL | > 50 µg/mL | 0.55 µg/mL | > 50 µg/mL | 0.48 µg/mL | – | – | – | – | – | – | – | –
2 | 1443_C16 (PG16) (TCN-116) (antibody) | 0.7 µg/mL | 43.6 µg/mL | > 50 µg/mL | 5.76 µg/mL | > 50 µg/mL | > 50 µg/mL | 1.34 µg/mL | 0.002 µg/mL | > 50 µg/mL | 20.7 µg/mL | 0.73 µg/mL | 3.83 µg/mL | 0.28 µg/mL | – | – | – | – | – | – | – | –
3 | 5123_A06 (PGT-125) (antibody) | – | – | – | – | – | – | – | – | – | – | – | – | – | > 50 µg/mL | 0.03 µg/mL | 0.048 µg/mL | > 50 µg/mL | > 50 µg/mL | 0.009 µg/mL | 3.23 µg/mL | IC50 neutralization [18]: 0.0055 µg/mL; IC50 (µg/mL), pseudovirus neutralization [22]: 0.157 µg/mL; IC50, pseudovirus neutralization [23]: 0.0066 µg/mL; neutralization IC50 [24]: 0.005 µg/mL; IC50 (µg/mL), pseudovirus neutralization [25]: > 50 µg/mL
4 | 2F5 (antibody) | 10.8 µg/mL | 0.6 µg/mL | 0.85 µg/mL | > 50 µg/mL | 1.78 µg/mL | 5.42 µg/mL | > 50 µg/mL | 0.54 µg/mL | 0.1 µg/mL | 2.36 µg/mL | > 50 µg/mL | > 50 µg/mL | 3.36 µg/mL | – | – | – | – | – | – | – | –
5 | 4E10 (antibody) | 23.2 µg/mL | 0.72 µg/mL | 1.76 µg/mL | 2.46 µg/mL | 0.44 µg/mL | 12.7 µg/mL | 4.68 µg/mL | 1.48 µg/mL | 0.53 µg/mL | 4.27 µg/mL | 16.7 µg/mL | 15.5 µg/mL | 4.54 µg/mL | – | – | – | – | – | – | – | –
6 | 4838_L06 (PGT-121) (antibody) | – | – | – | – | – | – | – | – | – | – | – | – | – | 0.016 µg/mL | 0.009 µg/mL | 0.823 µg/mL | > 50 µg/mL | 16.9 µg/mL | > 50 µg/mL | > 50 µg/mL | IC50 (µg/mL), pseudovirus neutralization [22]: 0.011 µg/mL; IC50, pseudovirus neutralization [23]: > 10 µg/mL; neutralization IC50 [24]: 0.002 µg/mL
7 | 5141_B17 (PGT-126) (antibody) | – | – | – | – | – | – | – | – | – | – | – | – | – | > 50 µg/mL | 0.019 µg/mL | 0.048 µg/mL | 43.1 µg/mL | > 50 µg/mL | 17.3 µg/mL | 0.108 µg/mL | IC50 neutralization [18]: 0.0033 µg/mL; IC50 (µg/mL), pseudovirus neutralization [22]: 0.041 µg/mL; IC50, pseudovirus neutralization [23]: 0.115 µg/mL; neutralization IC50 [24]: 0.007 µg/mL; IC50 (µg/mL), pseudovirus neutralization [25]: 17.1 µg/mL
8 | 4858_P08 (PGT-123) (antibody) | – | – | – | – | – | – | – | – | – | – | – | – | – | 0.016 µg/mL | 0.007 µg/mL | 0.158 µg/mL | > 50 µg/mL | > 50 µg/mL | > 50 µg/mL | > 50 µg/mL | IC50 neutralization [18]: 0.492 µg/mL; IC50 (µg/mL), pseudovirus neutralization [22]: 0.008 µg/mL; IC50, pseudovirus neutralization [23]: > 10 µg/mL; neutralization IC50 [24]: 0.001 µg/mL; IC50 (µg/mL), pseudovirus neutralization [25]: 0.046 µg/mL
9 | 4877_D15 (PGT-122) (antibody) | – | – | – | – | – | – | – | – | – | – | – | – | – | 0.024 µg/mL | 0.013 µg/mL | 0.493 µg/mL | > 50 µg/mL | > 50 µg/mL | > 50 µg/mL | > 50 µg/mL | IC50 neutralization [18]: 1.68 µg/mL; IC50 (µg/mL), pseudovirus neutralization [22]: 0.008 µg/mL; IC50, pseudovirus neutralization [23]: > 10 µg/mL; neutralization IC50 [24]: 0.006 µg/mL; IC50 (µg/mL), pseudovirus neutralization [25]: 0.079 µg/mL
10 | b12 (antibody) | 0.66 µg/mL | 29.3 µg/mL | > 50 µg/mL | 1.52 µg/mL | > 50 µg/mL | 0.73 µg/mL | 3.62 µg/mL | > 50 µg/mL | > 50 µg/mL | > 50 µg/mL | 2.82 µg/mL | > 50 µg/mL | > 50 µg/mL | – | – | – | – | – | – | – | –
11 | 1495_C14 (PGC14) (antibody) | > 50 µg/mL | > 50 µg/mL | > 50 µg/mL | 43 µg/mL | > 50 µg/mL | > 50 µg/mL | > 50 µg/mL | 45 µg/mL | > 50 µg/mL | > 50 µg/mL | > 50 µg/mL | 42 µg/mL | 46 µg/mL | – | – | – | – | – | – | – | –
